How the values were obtained:
[1] = substrate: NC(=O)C(=O)O; assay: oxamate consumption by HPLC, reverse reaction; assay type: biochemical, Escherichia coli; conditions: co-substrate carbamoyl phosphate, 10 mM MgCl2, 100 mM Tris pH 9.0, 30 °C, 100 nM enzyme
Description: (§1) oxamate consumption by HPLC, reverse reaction on AllFGH (AllF-AllG-AllH; FdrA-YlbE-YlbF), oxamic transcarbamylase (OXTCase)

[2] = substrate: NC(=O)OP(=O)(O)O; assay: oxamate consumption by HPLC, reverse reaction; assay type: biochemical, Escherichia coli; conditions: oxamate fixed at 40 mM, 10 mM MgCl2, 100 mM Tris pH 9.0, 30 °C, 100 nM enzyme
Description: as §1

B1: AllFGH (AllF-AllG-AllH; FdrA-YlbE-YlbF), oxamic transcarbamylase (OXTCase) (Escherichia coli K-12) (protein)
chain 1: MIHAFIKKGCFQDSVSLMIISRKLSESENVDDVSVMMGTPANKALLDTTGFWHDDFNNATPNDICVAIRSEAADAGIAQAIMQQLEEALKQLAQGSGSSQALTQVRRWDSACQKLPDANLALISVAGEYAAELANQALDRNLNVMMFSDNVTLEDEIQLKTRAREKGLLVMGPDCGTSMIAGTPLAFANVMPEGNIGVIGASGTGIQELCSQIALAGEGITHAIGLGGRDLSREVGGISALTALEMLSADEKSEVLAFVSKPPAEAVRLKIVNAMKATGKPTVALFLGYTPAVARDENVWFASSLDEAARLACLLSRVTARRNAIAPVSSGFICGLYTGGTLAAEAAGLLAGHLGVEADDTHQHGMMLDADSHQIIDLGDDFYTVGRPHPMIDPTLRNQLIADLGAKPQVRVLLLDVVIGFGATADPAASLVSAWQKACAARLDNQPLYAIATVTGTERDPQCRSQQIATLEDAGIAVVSSLPEATLLAAALIHPLSPAAQQHTPSLLENVAVINIGLRSFALELQSASKPVVHYQWSPVAGGNKKLARLLERLQ
chain 2: MFTSVAQANAAVIEQIRRARPHWLDVQPASSLISELNEGKTLLHAGPPMRWQEMTGPMKGACVGACLFEGWAKDEAQALAILEQGEVNFIPCHHVNAVGPMGGITSASMPMLVVENVTDGNRAYCNLNEGIGKVMRFGAYGEDVLTRHRWMRDVLMPVLSAALGRMERGIDLTAMMAQGITMGDEFHQRNIASSALLMRALAPQIARLDHDKQHIAEVMDFLSVTDQFFLNLAMAYCKAAMDAGAMIRAGSIVTAMTRNGNMFGIRVSGLGERWFTAPVNTPQGLFFTGFSQEQANPDMGDSAITETFGIGGAAMIAAPGVTRFVGAGGMEAARAVSEEMAEIYLERNMQLQIPSWDFQGACLGLDIRRVVETGITPLINTGIAHKEAGIGQIGAGTVRAPLACFEQALEALAESMGIG
chain 3: MTIIHPLLASSSAPNYRQSWRLAGVWRRAINLMTESGELLTLHRQGSGFGPGGWVLRRAQFDALCGGLCGNERPQVVAQGIRLGRFTVKQPQRYCLLRITPPAHPQPLAAAWMQRAEETGLFGPLALAASDPLPAELRQFRHCFQAALNGVKTDWRHWLGKGPGLTPSHDDTLSGMLLAAWYYGALDARSGRPFFACSDNLQLVTTAVSVSYLRYAAQGYFASPLLHFVHALSCPKRTAVAIDSLLALGHTSGADTLLGFWLGQQLLQGKP
notes: full-length subunits co-expressed from pET30b (pMB191) in E. coli BL21(DE3); 6xHis at N-terminus of AllF and C-terminus of AllH, tags kept; 62, 46, 31 kDa; 555, 419, 271 aa
Km [1]: 36.9 mM
kcat [1]: 58.5 s⁻¹
kcat/Km [1]: 1600 M⁻¹ s⁻¹
Km [2]: 1.3 mM
kcat [2]: 35.5 s⁻¹
kcat/Km [2]: 27300 M⁻¹ s⁻¹

Source: PMC11326118, “Oxamic transcarbamylase of Escherichia coli is encoded by the three genes allFGH (formerly fdrA, ylbE, and ylbF)” (Applied and Environmental Microbiology, 2024)
